In PMC9444977 (Cancer research, 2022):

Target: T1, FHH-tagged Siah1, recombinant purified (UniProt Q8IUQ4 1-282, labeled with RED-tris-NTA 2nd generation dye (Monolith His-Tag labeling kit))
T1 sequence (looked up): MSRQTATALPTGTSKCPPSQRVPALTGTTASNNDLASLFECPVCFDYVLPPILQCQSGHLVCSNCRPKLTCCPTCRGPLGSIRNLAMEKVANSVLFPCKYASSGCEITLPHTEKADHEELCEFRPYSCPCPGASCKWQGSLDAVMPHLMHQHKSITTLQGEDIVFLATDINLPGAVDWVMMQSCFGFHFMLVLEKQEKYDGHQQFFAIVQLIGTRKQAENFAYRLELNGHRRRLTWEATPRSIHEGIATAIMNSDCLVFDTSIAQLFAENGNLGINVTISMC
Assay: MST

Kd: 9.8 µM
B1: n-terminus FLAG-tagged CacyBP, recombinant purified (natural protein, UniProt Q9HB71 1-228, looked up)
chain: MASEELQKDLEEVKVLLEKATRKRVRDALTAEKSKIETEIKNKMQQKSQKKAELLDNEKPAAVVAPITTGYTVKISNYGWDQSDKFVKIYITLTGVHQVPTENVQVHFTERSFDLLVKNLNGKSYSMIVNNLLKPISVEGSSKKVKTDTVLILCRKKVENTRWDYLTQVEKECKEKEKPSYDTETDPSEGLMNVLKKIYEDGDDDMKRTINKAWVESREKQAKGDTEF
